# Measured values as given in the supplement of paper PMC10065799, “High-throughput profiling of sequence recognition by tyrosine kinases and SH2 domains using bacterial peptide display” (eLife, 2023).
# System: AncSZ
# Test: phosphorylation enrichment, bacterial display (enrichment ratio); higher = better substrate or ligand; peptides without Tyr show the background
# 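Further: 11-residue human phosphosite peptides and single-mutation variants displayed on the E. coli surface, counted by deep sequencing, each peptide's frequency after selection divided by its frequency in the unselected input library; frequency after pTyr selection over input frequency; kinase dosed for 20-30% of maximal phosphorylation in three min.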
row,Sequence,phosphorylation enrichment
1,CLMILHRLKER [PTPRR_Y249_Y249H],1.05
2,FLGRNYLETLM [DUS3L_Y610_D609N_YF],0.679
3,EDSEFYKAFEE [CASQ2_Y179_YF],1.2
4,RVKPIYFHTQG [AR_Y916_K911R],1.16
5,FSALDYKIFFF [WDPCP_Y210_L205F_YF],1.57
6,MHLRQYELLGG [GNAS_Y391],0.663
7,TLQTMYGCDVG [HLA-B_Y123_S121T],1.13
8,FPKARYRWLVL [APTX_Y214_H215R_YF],0.715
9,QYNIQYSSSAA [ERBB2IP_Y981],0.913
10,FFDANCDGKEF [MAPRE2_Y162_Y162C_YF],1.26
11,SCTFTYLLGDR [ETHE1_Y38],1.11
12,LGLTVYADCLA [ABCA4_Y2063],1.14
13,IWIFHYAKGQP [MPZ_Y82_S78W],1.26
14,FMRGMYFRMKD [PLA2G6_Y541_YF],1.16
15,YLENYYDLEKD [MMP3_Y42_K45E],1.76
16,MNLLGYRHVRS [CHST4_Y359],0.761
17,FPAVGYHKPHI [IDS_Y225_L221P],0.638

row,Sequence,phosphorylation enrichment
1,IFGEEYEEQPR [ZMYM2_Y1033_V1028I],1.47
2,GIVKAYYVRAR [AIPL1_Y267],1.03
3,SRPTQYSSFSC [SPEM2_Y104],0.764
4,DQVEQCKKELE [LMNA_Y259_Y259C],1.2
5,FSTSPYLLEAA [BRIP1_Y921_YF],0.782
6,EATKGYPDDPT [G6PD_Y322_L323P],0.901
7,QSQQAYQEAFE [YWHAZ_Y149],1.3
8,HNQDDYSFPSR [LDLR_Y845_G844D_YF],5.49
9,CTTIHYNYMGN [TP53_Y234_C238G],0.915
10,FISVGYVDGTQ [HLA-B_Y51_D54G],0.741
11,HHTDEYEFDEL [TGM1_Y134_YF],1.38
12,PTTKTYFPHFY [HBA1_Y43_D48Y],0.782
13,MKNQKYGRIIM [HSD17B4_Y143_K140N],0.527
14,HNLFSYPTKHE [MYO3A_Y1396_YF],0.773
15,PSSRDYKHNIK [PIGN_Y227],0.442
16,ETDPRYFDEEF [AKT1_Y437_T435P],1.36

# Biological target: EPHB1 (UniProt P54762)
# Test: as above
# Sequence of EPHB1 (P54762 whole entry, looked up): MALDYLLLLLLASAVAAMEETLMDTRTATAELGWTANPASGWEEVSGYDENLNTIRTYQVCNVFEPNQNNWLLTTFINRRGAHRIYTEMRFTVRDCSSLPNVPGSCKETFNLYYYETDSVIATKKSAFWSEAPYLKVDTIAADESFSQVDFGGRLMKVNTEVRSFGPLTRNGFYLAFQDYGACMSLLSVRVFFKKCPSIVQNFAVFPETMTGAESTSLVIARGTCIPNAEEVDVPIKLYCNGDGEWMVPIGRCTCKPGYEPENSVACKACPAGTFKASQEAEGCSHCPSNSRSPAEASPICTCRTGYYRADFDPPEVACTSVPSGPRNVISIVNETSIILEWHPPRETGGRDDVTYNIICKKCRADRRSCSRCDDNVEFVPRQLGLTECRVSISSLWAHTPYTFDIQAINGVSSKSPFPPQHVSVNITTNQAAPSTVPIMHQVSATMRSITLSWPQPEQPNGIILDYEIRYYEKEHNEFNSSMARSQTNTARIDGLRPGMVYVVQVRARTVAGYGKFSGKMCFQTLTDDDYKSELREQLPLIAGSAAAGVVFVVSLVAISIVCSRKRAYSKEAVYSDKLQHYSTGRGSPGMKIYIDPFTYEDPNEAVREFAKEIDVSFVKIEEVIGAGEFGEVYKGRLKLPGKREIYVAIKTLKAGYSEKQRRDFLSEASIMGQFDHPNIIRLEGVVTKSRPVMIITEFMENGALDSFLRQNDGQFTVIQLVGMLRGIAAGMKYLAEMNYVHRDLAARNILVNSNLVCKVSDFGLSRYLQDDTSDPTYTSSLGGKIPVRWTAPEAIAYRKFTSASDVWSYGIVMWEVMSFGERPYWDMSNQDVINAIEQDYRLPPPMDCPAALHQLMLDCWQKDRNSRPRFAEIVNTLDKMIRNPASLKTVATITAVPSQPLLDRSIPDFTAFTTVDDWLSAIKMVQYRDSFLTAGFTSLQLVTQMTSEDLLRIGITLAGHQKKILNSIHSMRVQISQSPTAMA
row,Sequence,phosphorylation enrichment
1,CLMILHRLKER [PTPRR_Y249_Y249H],0.496
2,FLGRNYLETLM [DUS3L_Y610_D609N_YF],0.515
3,EDSEFYKAFEE [CASQ2_Y179_YF],0.534
4,RVKPIYFHTQG [AR_Y916_K911R],0.644
5,FSALDYKIFFF [WDPCP_Y210_L205F_YF],0.675
6,MHLRQYELLGG [GNAS_Y391],0.75
7,TLQTMYGCDVG [HLA-B_Y123_S121T],0.909
8,FPKARYRWLVL [APTX_Y214_H215R_YF],0.448
9,QYNIQYSSSAA [ERBB2IP_Y981],0.335
10,FFDANCDGKEF [MAPRE2_Y162_Y162C_YF],0.573
11,SCTFTYLLGDR [ETHE1_Y38],0.491
12,LGLTVYADCLA [ABCA4_Y2063],0.686
13,IWIFHYAKGQP [MPZ_Y82_S78W],0.578
14,FMRGMYFRMKD [PLA2G6_Y541_YF],0.518
15,YLENYYDLEKD [MMP3_Y42_K45E],5.81
16,MNLLGYRHVRS [CHST4_Y359],0.423
17,FPAVGYHKPHI [IDS_Y225_L221P],0.393

row,Sequence,phosphorylation enrichment
1,IFGEEYEEQPR [ZMYM2_Y1033_V1028I],0.663
2,GIVKAYYVRAR [AIPL1_Y267],0.398
3,SRPTQYSSFSC [SPEM2_Y104],0.584
4,DQVEQCKKELE [LMNA_Y259_Y259C],0.59
5,FSTSPYLLEAA [BRIP1_Y921_YF],0.488
6,EATKGYPDDPT [G6PD_Y322_L323P],0.501
7,QSQQAYQEAFE [YWHAZ_Y149],0.355
8,HNQDDYSFPSR [LDLR_Y845_G844D_YF],1.3
9,CTTIHYNYMGN [TP53_Y234_C238G],0.85
10,FISVGYVDGTQ [HLA-B_Y51_D54G],0.268
11,HHTDEYEFDEL [TGM1_Y134_YF],0.909
12,PTTKTYFPHFY [HBA1_Y43_D48Y],0.46
13,MKNQKYGRIIM [HSD17B4_Y143_K140N],0.376
14,HNLFSYPTKHE [MYO3A_Y1396_YF],0.65
15,PSSRDYKHNIK [PIGN_Y227],0.321
16,ETDPRYFDEEF [AKT1_Y437_T435P],0.625

# Biological target: EPHB2 (UniProt P29323)
# Test: as above
# Sequence of EPHB2 (P29323 whole entry, looked up): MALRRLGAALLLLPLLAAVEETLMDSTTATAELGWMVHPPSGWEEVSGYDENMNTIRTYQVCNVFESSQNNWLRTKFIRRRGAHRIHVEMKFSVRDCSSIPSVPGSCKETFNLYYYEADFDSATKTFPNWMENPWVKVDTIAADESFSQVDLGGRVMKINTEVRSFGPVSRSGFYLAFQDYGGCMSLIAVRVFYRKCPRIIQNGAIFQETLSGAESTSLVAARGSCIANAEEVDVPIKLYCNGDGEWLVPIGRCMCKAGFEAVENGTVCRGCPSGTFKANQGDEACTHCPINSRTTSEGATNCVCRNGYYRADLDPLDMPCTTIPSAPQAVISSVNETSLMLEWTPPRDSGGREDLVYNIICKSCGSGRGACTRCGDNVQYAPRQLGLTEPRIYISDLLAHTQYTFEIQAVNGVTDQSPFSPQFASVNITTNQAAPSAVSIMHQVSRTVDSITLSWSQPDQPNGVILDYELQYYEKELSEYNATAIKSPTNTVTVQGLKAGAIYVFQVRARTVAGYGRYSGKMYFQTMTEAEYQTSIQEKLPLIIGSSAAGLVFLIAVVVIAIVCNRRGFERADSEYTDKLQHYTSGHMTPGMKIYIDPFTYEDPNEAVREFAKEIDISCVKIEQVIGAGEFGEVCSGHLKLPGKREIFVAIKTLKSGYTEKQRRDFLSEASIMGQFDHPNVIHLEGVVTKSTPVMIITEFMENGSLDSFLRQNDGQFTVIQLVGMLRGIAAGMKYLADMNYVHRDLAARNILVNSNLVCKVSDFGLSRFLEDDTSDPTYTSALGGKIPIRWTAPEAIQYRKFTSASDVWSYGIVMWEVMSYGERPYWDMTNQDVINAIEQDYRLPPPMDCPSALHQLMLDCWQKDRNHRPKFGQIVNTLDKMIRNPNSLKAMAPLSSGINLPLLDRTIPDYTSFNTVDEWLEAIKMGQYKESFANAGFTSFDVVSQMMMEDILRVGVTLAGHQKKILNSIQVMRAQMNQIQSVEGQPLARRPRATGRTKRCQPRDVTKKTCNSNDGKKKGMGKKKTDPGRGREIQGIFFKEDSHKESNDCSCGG
row,Sequence,phosphorylation enrichment
1,CLMILHRLKER [PTPRR_Y249_Y249H],0.569
2,FLGRNYLETLM [DUS3L_Y610_D609N_YF],0.412
3,EDSEFYKAFEE [CASQ2_Y179_YF],0.659
4,RVKPIYFHTQG [AR_Y916_K911R],0.804
5,FSALDYKIFFF [WDPCP_Y210_L205F_YF],0.54
6,MHLRQYELLGG [GNAS_Y391],0.453
7,TLQTMYGCDVG [HLA-B_Y123_S121T],0.589
8,FPKARYRWLVL [APTX_Y214_H215R_YF],0.371
9,QYNIQYSSSAA [ERBB2IP_Y981],0.583
10,FFDANCDGKEF [MAPRE2_Y162_Y162C_YF],0.62
11,SCTFTYLLGDR [ETHE1_Y38],0.56
12,LGLTVYADCLA [ABCA4_Y2063],0.657
13,IWIFHYAKGQP [MPZ_Y82_S78W],0.498
14,FMRGMYFRMKD [PLA2G6_Y541_YF],0.542
15,YLENYYDLEKD [MMP3_Y42_K45E],3.24
16,MNLLGYRHVRS [CHST4_Y359],0.461
17,FPAVGYHKPHI [IDS_Y225_L221P],0.467

row,Sequence,phosphorylation enrichment
1,IFGEEYEEQPR [ZMYM2_Y1033_V1028I],0.647
2,GIVKAYYVRAR [AIPL1_Y267],0.47
3,SRPTQYSSFSC [SPEM2_Y104],0.511
4,DQVEQCKKELE [LMNA_Y259_Y259C],0.625
5,FSTSPYLLEAA [BRIP1_Y921_YF],0.494
6,EATKGYPDDPT [G6PD_Y322_L323P],0.673
7,QSQQAYQEAFE [YWHAZ_Y149],0.47
8,HNQDDYSFPSR [LDLR_Y845_G844D_YF],2.14
9,CTTIHYNYMGN [TP53_Y234_C238G],0.62
10,FISVGYVDGTQ [HLA-B_Y51_D54G],0.401
11,HHTDEYEFDEL [TGM1_Y134_YF],0.936
12,PTTKTYFPHFY [HBA1_Y43_D48Y],0.735
13,MKNQKYGRIIM [HSD17B4_Y143_K140N],0.34
14,HNLFSYPTKHE [MYO3A_Y1396_YF],0.624
15,PSSRDYKHNIK [PIGN_Y227],0.47
16,ETDPRYFDEEF [AKT1_Y437_T435P],0.604

# Biological target: FGFR1 (UniProt P11362)
# Test: as above
# Sequence of FGFR1 (P11362 whole entry, looked up): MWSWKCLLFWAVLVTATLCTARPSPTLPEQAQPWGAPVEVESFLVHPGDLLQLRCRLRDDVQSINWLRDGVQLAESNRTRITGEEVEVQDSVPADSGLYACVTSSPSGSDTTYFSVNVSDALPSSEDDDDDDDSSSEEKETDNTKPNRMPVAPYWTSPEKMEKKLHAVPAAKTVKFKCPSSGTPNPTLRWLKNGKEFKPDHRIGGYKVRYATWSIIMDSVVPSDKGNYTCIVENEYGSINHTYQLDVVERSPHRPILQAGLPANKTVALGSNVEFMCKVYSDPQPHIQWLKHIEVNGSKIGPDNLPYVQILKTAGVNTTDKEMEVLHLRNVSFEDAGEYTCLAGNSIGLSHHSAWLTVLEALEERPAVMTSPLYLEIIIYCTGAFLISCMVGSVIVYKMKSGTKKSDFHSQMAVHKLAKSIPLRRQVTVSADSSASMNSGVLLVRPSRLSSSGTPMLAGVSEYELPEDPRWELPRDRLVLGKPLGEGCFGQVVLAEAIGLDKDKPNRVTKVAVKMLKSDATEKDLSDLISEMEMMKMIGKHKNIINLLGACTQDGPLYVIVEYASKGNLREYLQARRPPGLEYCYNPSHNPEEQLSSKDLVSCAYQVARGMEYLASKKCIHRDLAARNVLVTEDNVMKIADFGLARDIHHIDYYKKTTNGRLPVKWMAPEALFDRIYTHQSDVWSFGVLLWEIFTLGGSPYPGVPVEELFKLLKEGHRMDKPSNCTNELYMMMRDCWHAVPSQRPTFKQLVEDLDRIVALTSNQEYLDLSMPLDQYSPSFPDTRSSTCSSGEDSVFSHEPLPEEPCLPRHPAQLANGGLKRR
row,Sequence,phosphorylation enrichment
1,CLMILHRLKER [PTPRR_Y249_Y249H],0.436
2,FLGRNYLETLM [DUS3L_Y610_D609N_YF],0.448
3,EDSEFYKAFEE [CASQ2_Y179_YF],0.482
4,RVKPIYFHTQG [AR_Y916_K911R],0.706
5,FSALDYKIFFF [WDPCP_Y210_L205F_YF],0.6
6,MHLRQYELLGG [GNAS_Y391],0.558
7,TLQTMYGCDVG [HLA-B_Y123_S121T],0.556
8,FPKARYRWLVL [APTX_Y214_H215R_YF],0.533
9,QYNIQYSSSAA [ERBB2IP_Y981],0.693
10,FFDANCDGKEF [MAPRE2_Y162_Y162C_YF],0.455
11,SCTFTYLLGDR [ETHE1_Y38],0.446
12,LGLTVYADCLA [ABCA4_Y2063],0.618
13,IWIFHYAKGQP [MPZ_Y82_S78W],0.348
14,FMRGMYFRMKD [PLA2G6_Y541_YF],0.442
15,YLENYYDLEKD [MMP3_Y42_K45E],7.06
16,MNLLGYRHVRS [CHST4_Y359],0.612
17,FPAVGYHKPHI [IDS_Y225_L221P],0.412

row,Sequence,phosphorylation enrichment
1,IFGEEYEEQPR [ZMYM2_Y1033_V1028I],0.611
2,GIVKAYYVRAR [AIPL1_Y267],0.461
3,SRPTQYSSFSC [SPEM2_Y104],0.557
4,DQVEQCKKELE [LMNA_Y259_Y259C],0.528
5,FSTSPYLLEAA [BRIP1_Y921_YF],0.408
6,EATKGYPDDPT [G6PD_Y322_L323P],0.465
7,QSQQAYQEAFE [YWHAZ_Y149],0.488
8,HNQDDYSFPSR [LDLR_Y845_G844D_YF],0.539
9,CTTIHYNYMGN [TP53_Y234_C238G],0.532
10,FISVGYVDGTQ [HLA-B_Y51_D54G],0.353
11,HHTDEYEFDEL [TGM1_Y134_YF],1.07
12,PTTKTYFPHFY [HBA1_Y43_D48Y],0.628
13,MKNQKYGRIIM [HSD17B4_Y143_K140N],0.433
14,HNLFSYPTKHE [MYO3A_Y1396_YF],0.74
15,PSSRDYKHNIK [PIGN_Y227],0.448
16,ETDPRYFDEEF [AKT1_Y437_T435P],0.548
